From publication PMC3141380, “Crystal structure of alkyl hydroperoxidase D like protein PA0269 from Pseudomonas aeruginosa: Homology of the AhpD-like structural family” (BMC Structural Biology, 2011)

Assays:
[1] = molecular target: the molecule itself; assay: SEC; Superdex 200 26/60, 10 mM HEPES pH 7.5, 0.25 M NaCl, 0.5 mM TCEP; data not shown
[2] = molecular target: the molecule itself; assay: crystal structure; SeMet protein, space group P6(3)22, one molecule in the asymmetric unit; hexamer built by crystallographic symmetry; crystals from 0.1 M Tris pH 7.6, 0.2 M NaCl, phosphate, 20°C

B1: Alkyl hydroperoxidase D like protein PA0269 from Pseudomonas aeruginosa (natural protein, P. aeruginosa, UniProt Q9I6M1 1-145, looked up)
chain: MTTRLEWAKASPDAYAAMLGLEKALAKAGLERPLIELVYLRTSQINGCAYCVNMHANDARKAGETEQRLQALCVWQETPYFTPRERAALAWTEQLARLSQGALPHGLLDELREHFDDKEIAELTLAVSAINAWNRFGVGMGMQPE
modifications: selenomethionine (four Se-Met residues found in the structure, Se in partial occupancy)
notes: PA0269 (AhpD-like protein), Pseudomonas aeruginosa strain 633 (ATCC 17933D) genomic DNA, full length protein of 145 aa, cloned in pET15b; A native sample with and without the His tag was also made; also called P. aeruginosa AhpD; putative AhpD; source: E. coli BL21 (DE3), M9 selenomethionine media, purified (DE52, Ni-NTA, Superdex 200 gel filtration)
stoichiometry N [1]: 5.5
stoichiometry N [2]: 6
